Assay results taken from patent US20200181243A1.
Read-outs that look alike come from different tables or passages of the source.

Legend:
Hemagglutinin (HA) [1] = assay: Hemagglutinin (HA) binding ELISA potency; antibody in Formulation #3, t=0
Hemagglutinin (HA) [2] = biological target: Hemagglutinin (HA)

B1: Ab 044 (antibody, V domains shown)
VH: QVQLLETGGGLVKPGQSLKLSCAASGFTFTSYAMHWVRQPPGKGLEWVAVVSYDGNYKYYADSVQGRFTISRDNSKNTLYLQMNSLRAEDTAVYYCAKDSRLRSLLYFEWLSQGYFNPWGQGTTLTVSS
VL: DIQMTQSPSSLSASVGDRVTITCRSSQSITFDYKNYLAWYQQKPGKAPKLLIYWGSYLESGVPSRFSGSGSGTDFTLTISSLQPEDFATYYCQQHYRTPPSFGQGTKVEIK
For B1, the % Activity (Hemagglutinin (HA) [1]) was 123%, the % Activity (Hemagglutinin (HA) [2]) was 97% and the Average % Activity (Hemagglutinin (HA) [2]) was 110%.
